Read-outs that look alike come from different tables or passages of the source. Numbered stars: 1 amine (or outer) side, 2 acyl side, 3 side chain; on linkers, the order of the positions; unused ones are H or OH. Square brackets hold non-standard residues; d marks the D form. Side chains are listed from the residue outwards. Ends that are not written are not given here. * marks the point of attachment. C18 diacid = O=C(O)CCCCCCCCCCCCCCCCC(=O)*; pY = N[C@@H](Cc1ccc(OP(=O)(O)O)cc1)C(=O)O; γGlu = O=C(O)[C@H](CCC(=O)[*:2])N[*:1]; AEEA = NCCOCCOCC(=O)O
Legend:
glucagon receptor [1] = target: T1, glucagon receptor (UniProt P47871 26-477, limits assumed); experiment: cell-based or functional assay
T1 sequence (P47871 26-477 limits assumed): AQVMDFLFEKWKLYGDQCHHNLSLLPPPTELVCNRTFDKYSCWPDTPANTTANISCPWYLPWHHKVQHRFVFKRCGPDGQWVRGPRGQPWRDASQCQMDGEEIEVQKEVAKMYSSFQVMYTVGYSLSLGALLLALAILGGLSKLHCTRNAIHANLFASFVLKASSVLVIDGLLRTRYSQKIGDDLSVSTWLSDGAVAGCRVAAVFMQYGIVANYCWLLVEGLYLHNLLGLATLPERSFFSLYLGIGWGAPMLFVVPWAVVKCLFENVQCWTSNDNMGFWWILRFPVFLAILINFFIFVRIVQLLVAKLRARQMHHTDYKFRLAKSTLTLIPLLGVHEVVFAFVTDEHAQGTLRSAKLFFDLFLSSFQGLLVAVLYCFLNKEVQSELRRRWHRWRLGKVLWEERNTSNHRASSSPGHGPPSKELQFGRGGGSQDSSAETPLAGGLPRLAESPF

glucagon receptor [2] = target: T1, glucagon receptor; experiment: cell-based or functional assay; remark: listed apart in the source

Assay (I) Glucagon [EC50] (glucagon receptor [1]) [nM] | Assay (I) Glucagon [EC50] (glucagon receptor [2]) [nM] | Binder
0.055 | 0.055 | HSQGTFTSDYSKYLDSRRAQDFVQWLLK([γGlu-γGlu-AEEA-AEEA-γGlu-C18 diacid])T
– | 0.094 | HSQGTFTSDYSKYLDSRRAQDFVK([γGlu-γGlu-γGlu-C18 diacid])WLLST
0.15 | – | HSQGTFTSDYSKYLDSRQAQEFVK([AEEA-AEEA-γGlu-C18 diacid])WLLNT
0.02 | – | HSQGTFTSDYSKYLDK([AEEA-AEEA-γGlu-C18 diacid])KKAQEFVQWLLNT
– | 0.105 | HSQGTFTSDYSKYLDK([γGlu-γGlu-AEEA-AEEA-γGlu-C18 diacid])RRAQDFVQWLLNT
– | 2.2 | HSQGTFTSEYSKYLDSRRAQDFVK([γGlu-γGlu-AEEA-γGlu-C18 diacid])WLLST
– | 0.141 | HSQGTFTSDYSKYLDSRRAQDFVQWLLK([γGlu-γGlu-γGlu-C18 diacid])T
– | 0.128 | HSQGTFTSDYSKYLDSRRAQDFVQWLLK([γGlu-γGlu-AEEA-AEEA-γGlu-C18 diacid])TP
– | 0.093 | HSQGTFTSDYSKYLDSRRAQDFVQWLLK([γGlu-AEEA-AEEA-γGlu-γGlu-C18 diacid])T
– | 1.17 | HSQGTFTSDYSKYLDSRRAQDFVQWLK([γGlu-γGlu-AEEA-AEEA-γGlu-C18 diacid])NP
0.022 | – | HSQGTFTSDYSKYLDSKRAQEFVK([AEEA-AEEA-γGlu-C18 diacid])WLLNT
– | 0.142 | HSQGTFTSDYSKYLDSRRAQDFVKWLLNTP (Lys 24: N-epsilon acylated with the substituent printed in the name)
0.074 | – | HSQGTFTSDYSKYLDSRRAQEFVK([AEEA-AEEA-γGlu-C18 diacid])RLLNT
– | 0.081 | HSQGTFTSDYSKYLDK([AEEA-AEEA-γGlu-γGlu-γGlu-C18 diacid])RRAQDFVQWLLNT
0.022 | – | HSQGTFTSDYSKYLDSRRAQDFVQWLLK([AEEA-AEEA-γGlu-C18 diacid])T
– | 0.156 | HSQGTFTSDYSKYLDSRRAQDFVK([γGlu-γGlu-AEEA-AEEA-γGlu-C18 diacid])WLLNP
– | 0.115 | HSQGTFTSDYSKYLDSRRAQDFVK([AEEA-AEEA-γGlu-γGlu-γGlu-C18 diacid])WLLST
0.056 | 0.056 | HSQGTFTSDYSKYLDSRRAQDFVQWLLNTK (C-terminal Lys (position 30): N-epsilon acylated with the substituent printed in the name) [N^α-([Leu^27]Glucagonyl) …]
0.02 | – | HSQGTFTSDYSKYLDK([AEEA-AEEA-γGlu-C18 diacid])KRAQEFVQWLLNT
– | 1.58 | HSQGTFTSDYSK([γGlu-γGlu-AEEA-AEEA-γGlu-C18 diacid])YLDSRRAQDFVQWLLNP

Assay (I) Glucagon [EC50] (glucagon receptor [1]) [nM] | Assay (I) Glucagon [EC50] (glucagon receptor [2]) [nM] | Binder
– | 0.127 | HSQGTFTSDYSRYLDSRRAQDFVK([γGlu-γGlu-AEEA-AEEA-γGlu-C18 diacid])WLLNT
– | 0.053 | HSQGTFTSDYSKYLDSRRAQEFVK([γGlu-γGlu-AEEA-γGlu-C18 diacid])WLLST
– | 0.106 | HSQGTFTSDYSKYLDSRRAQDFVK([γGlu-AEEA-AEEA-γGlu-γGlu-C18 diacid])WLLST
– | 0.058 | HSQGTFTSDYSKYLDSRRAK([γGlu-γGlu-AEEA-AEEA-γGlu-C18 diacid])DFVQWLLNT
– | 0.116 | HSQGTFTSDYSKYLDSRRAQDFVQWLLK([AEEA-AEEA-γGlu-γGlu-γGlu-C18 diacid])T
– | 2.11 | HSQGTFTSDYSRYLDSRRAQDFVQWLK([γGlu-γGlu-AEEA-AEEA-γGlu-C18 diacid])NP
– | 0.122 | HSQGTFTSDYSKYLDK([γGlu-AEEA-AEEA-γGlu-γGlu-C18 diacid])RRAQDFVQWLLNT
0.095 | 0.095 | HSQGTFTSDYSKYLDSRRAQDFVQWLLNK([γGlu-γGlu-AEEA-AEEA-γGlu-C18 diacid])
0.003 | – | HSQGTFTSDYSKYLDSKRAQEFVQWLLNK([AEEA-AEEA-γGlu-C18 diacid])-NH2 (N-terminus assumed; SMILES CC(C)C[C@H](NC(=O)[C@H](CC(C)C)NC(=O)[C@H](Cc1c[nH]c2ccccc12)NC(=O)[C@H](CCC(N)=O)NC(=O)[C@@H](NC(=O)[C@H](Cc1ccccc1)NC(=O)[C@H](CCC(=O)O)NC(=O)[C@H](CCC(N)=O)NC(=O)[C@H](C)NC(=O)[C@H](CCCNC(=N)N)NC(=O)[C@H](CCCCN)NC(=O)[C@H](CO)NC(=O)[C@H](CC(=O)O)NC(=O)[C@H](CC(C)C)NC(=O)[C@H](Cc1ccc(O)cc1)NC(=O)[C@H](CCCCN)NC(=O)[C@H](CO)NC(=O)[C@H](Cc1ccc(O)cc1)NC(=O)[C@H](CC(=O)O)NC(=O)[C@H](CO)NC(=O)[C@@H](NC(=O)[C@H](Cc1ccccc1)NC(=O)[C@@H](NC(=O)CNC(=O)[C@H](CCC(N)=O)NC(=O)[C@H](CO)NC(=O)[C@@H](N)Cc1c[nH]cn1)[C@@H](C)O)[C@@H](C)O)C(C)C)C(=O)N[C@@H](CC(N)=O)C(=O)N[C@@H](CCCCNC(=O)COCCOCCNC(=O)COCCOCCNC(=O)CC[C@H](NC(=O)CCCCCCCCCCCCCCCCC(=O)O)C(=O)O)C(N)=O) [N^ε29 …]
– | 0.189 | HSQGTFTSDYSKYLDSRRAQDFVQWLLK([γGlu-γGlu-AEEA-AEEA-γGlu-C18 diacid])P
– | 0.12 | HSQGTFTSDYSKYLDSRRAEEFVK([γGlu-γGlu-AEEA-γGlu-C18 diacid])WLLST
0.171 | – | HSQGTFTSDYSKYLDSRRAQDFVK([AEEA-AEEA-γGlu-C18 diacid])[pY]LLNT
– | 0.988 | HSQGTFTSDYSKYLDSRRAQDFVQK([γGlu-γGlu-AEEA-AEEA-γGlu-C18 diacid])LLNT
– | 0.1 | HSQGTFTSDYSKYLDSRRAQDFVHWLLNTK (C-terminal Lys (position 30): N-epsilon acylated with the substituent printed in the name)
0.155 | – | HSQGTFTSDYSKYLDSRRAQDFVQK([AEEA-AEEA-γGlu-C18 diacid])LLNT
0.009 | – | HSQGTFTSDYSKYLDSKKAQEFVK([AEEA-AEEA-γGlu-C18 diacid])WLLST
– | 0.307 | HSQGTFTSDYSKYLDSRRAEDFVK([γGlu-γGlu-AEEA-AEEA-γGlu-C18 diacid])WLLST
0.194 | – | HSQGTFTSDYSKYLDSRRAQDFVK([AEEA-AEEA-γGlu-C18 diacid])HLLNT
– | 0.044 | HSQ[dF]TFTSDYSKYLDSRRAQDFVK([γGlu-γGlu-AEEA-AEEA-γGlu-C18 diacid])WLLST
– | 0.45 | HSQGTFTSDYSKYLDK([γGlu-γGlu-AEEA-AEEA-γGlu-C18 diacid])RRAQEFVQRLLNT

Reference: patent US20130143798A1 (Novo Nordisk, published 2013)
